From the DeepSol protein solubility set

assay: soluble on expression in E. coli; label from the status in PepcDB or PDB records

Sequence | soluble on expression in E. coli
MLFHRKIKVPDCVFKAEKRVLHVSDTPVSFYRTFDEILNLIKPDIIIHTGDLADDIKLERKPWLKKEYENALIKFKNIIRGRIVYLVPGNEDDKEIIREILGRDVILVNPGTIIEIYGRTFALGHKPEDVKGKEAEFKLYGHDPKSLFPFNGIHAIHIILFPEWKVVKIRYPSWVNYDRGYRIFRGLLEHHHHHH | not soluble
MYTITDIAPTDAEFIALIAALDAWQETLYPAESNHLLDLSQLPPQTVIALAIRSPQGEAVGCGAIVLSEEGFGEMKRVYIDPQHRGQQLGEKLLAALEAKARQRDCHTLRLETGIHQHAAIALYTRNGYQTRCAFAPYQPDPLSVFMEKP | not soluble
MGSDKIHHHHHHMKLMRIQEMEEYILSHGTVSLDELCQVFNVSKNTVRRDINKLTEKGAIEKVYGGVTSIEKTALVPFENRTIQHQDEKTKIAHYASRFIEDHDLVFIDSGTTTKSILDTLDPAKNVTILTNSLDIINAASALKNINLIIIGNNYKRKTRSFVGMDDPAMLDKYNINKAFMSATGTTLTHGLTNSDLLEYEIKKRISEKAKEVYLLADHSKFGKSTLLTYAPFDRLHCIVTSQPLDDEYTQYCNEHQIGIHLA | not soluble
MPCDFPGCGRIFSNRQYLNHHKKYQHIHQKSFSCPEPACGKSFNFKKHLKEHMKLHSDTRDYICEF | soluble
MGSDKIHHHHHHMIRREDYQYLRKLNDFRYFSIEQFDKIVGQMEFRKAKKDHILFFEGDKRDKLFLVTSGYFKVEQSDQSGTFMYTDFIRHGTIFPYGGLFTDDYYHFSVVAMTDVTYFYFPVDLFEDYSLENRLQMKHLYSKMSKLLELHELRVRNLITSSASSRVIQSLAILLVEMGKDSDTLPFQLTTTDIAQISGTTRETVSHVLRDLKKQELITIKGKYLTYLDKDYFLQYTK | not soluble
GPGSMAELHVIGDLAFGEDFGGKSYFCAFEIVTGEHWRVVEGHTSGCTHIMESDSCGGIAWCFPIDVHYTMGSVEGWPKISMQVWSVDGYGRKDLAGYGVAFVPPPGGEEQEVNVETWKPCFWNPNFFIRLYENLREAVMGGGPVLCDKTMIHTNDERFKLRTISSGSVRLHLNVVARGMERLGVRCA | not soluble
MGSDKIHHHHHHMNAPAHDNGRLALMLNELRLPTIGRLWPEFAERSDKEGWPATRLLGALLEHELAERAKRRIERHRTESHLDPTKTLATFDFGMVPMVSKAHVTALATGESWLEKGATILLFGPPGAGKSHLGSAIGHALIDAGYRVLFTRTSELVQKLQAARQSLQLPSALAKLDRFDLIILDDLSYARKDQAETSVLFELIAERYERKSLLITANQPFSGWNDVFPDPGMTVAAIDRLVHHSTIFELNVESYRRRKASDKQSARRRQLPDDNYEGGATIMN | not soluble
MMVRILTRLGQVREAEEKYRRELVDFRMGEVYGNLRAIIADEDVEVRAGEAKPVKIKEVSIPANHIVFMCAYATNPLGHPIAAGEETPLPISMDRKADHATFVAAADGKISRNDLLGVLIILPVELTH | not soluble
GSIGLEAEIETTTDETDDGTNTVSHILNVLKDATPIEDVFSFNYPEGIEGPDIKYKKEHVKYTYGPTFLLQFKDKLNVKADAEWVQSTASKIVIPPGMGR | soluble
MNTICKMRDIYKALSIFETAFEEVYGISLNEAMVLCALREAGKEITSTAIAERTEMAPSHTSKVIRAVEDKGLIRRALGEVDKRQMYFSLTEAGKKRLNELDLDKVEIPEMLKPLI | not soluble
MHTQYFPNRRPGRIQPLGIQQNTIYVYVKVKHVLEFYAIDIRLPYHWHQIAKLNISEMSYTFSTLSPDFRYIYVLFLRVAREMATFAVQRFDLENNGTADLFLLNAAEELYRVFEVPLDSVTLRCDSGGQLVLYDRSIVQGEIPFWTIRLEESTKTFRILKNSIPTAGDDTERNSALFTIAVDPVNRCFAKLMSPRTMLVYTEERKRWVEYHIPVEQSLQDIFGSDGFPVEEIRGIRETFGTHGHRMGALQTRLTFHDLNDVLVARCLHLHWNTTATVEFDHVNREIQVRLLAKFPLDDEVTRMFYLIASKEHHVFLGVYDTAIVHIKSPKLEEIVGWRMQKMLMRDGHKDEVLQISNYRQLLALALTKYADKDEDLAENLKNLGIEPPRKKLVVMEIELD | not soluble
MENSRLMQSMPRTPKFEEEKKTDKDKEKEEKERNGKKTELARAQNKKAQEKDMPRFKQGENQIDTATETYELTSELGQGSFGAVFGVTRKSDKRHFAMKCESVNMKRAILPHEAGVLLALNHLKSPHFLEMVDHGIVNNRFLFVVLKLVGMNLWDMRAHLPDKKYTLTTTLRIAEQTLAGLRDLHRVGFLHRDIKPPNFAIGREEDDTYHTVFLLDFGLCRKIAMKGKDLRTPRKECAFRGTTRYAALAAHDNKEQSRKDDIESWWYMIAEMIVFDIPWKQFRGTDRDNVRGMKWRLRADETYFKFLFRKCCYEQMSAILLYLDQLSYSSIPDYDFVYHHLQAAAIVNNCSAKSPPDWDPKSQHYKGPIYKEREPYIVKSLE | not soluble
MGSDKIHHHHHHMRRLRKALAAGSFLFRGTFVQSDPIPARARRPIMMLEHIQARTHHARRGALRNSFTYGVDYVLTDLGPAGPLLISRNRFNLWSLWDHRHGGARDNGHGVHWFRSLLQERGLATENAQLLLLTQPSFLWFHFNPVSFWIALVDGTPRAFVAEVNSTFGQRHCYFCARDGFAPIRKSDTLIAEKLMHVSPFQRIAGHYAFNFGMTDTQIDIRISFENGDHGVLATLSGERRPATSASLAWAAIRRPLGAARVLALIHWQAAILYLKRAPFLKKQHPPEHLVSDGYDLRGTKE | not soluble
MGSVVPHYSWFSGITQFQKGKEFQFAEGQGVPIANGIPASEQKGYWYRHNRRSFKTPDGQQKQLLPRWYFYYLGTGPHAGASYGDSIEGVFWVANSQADTNTRSDIVERDPSSHEAIPTRFAPGTVLPQGFYVEGSGRS | soluble
MSQFEKQKEQGNSLFKQGLYREAVHCYDQLITAQPQNPVGYSNKAMALIKLGEYTQAIQMCQQGLRYTSTAEHVAIRSKLQYRLELAQGAVGSVQIPVVEVDELPEGYDRS | not soluble
MGSDKIHHHHHHMEKEIPEMFASNYQDWQPIYNWDTCKAGRKEYGKFLCSFLTSSKDDLVVNLNGSWGTGKTELLRRLYVELAERQHPVVYINAWESDFCDDALSVISSEFLNQLEVAFGHNGDPKWLSKFNNLKQKLGKALKFGSLGATMNGEPNAATLLGATSAAVNELPDLASAAVSDNNIRLIEKISSNHANRVQAMKEVREQISALADTMQMVCEAELPIVVLVDELDRCRPTYAIEMLEVIKHFFEARGCVFLVATDTVALEHSIKAVYGASFESEKYLRRFFDRRIALPPLSITQYLKAKALDFTRYQTDQLRLFPFTAINAQLIKIFALLFENAQMSLRDVEQSLQKCVASLEYLQSLGTRPQIVNVIVLMMGSLSSNYRPNRFRIDLQIKYFPMELV | not soluble
RPDKVKLALDKTSYRAGDTLKVTITPPHPGKGLLLVESDKPLYVQAIDANPSTTLEIPVTADWERHDVYVTALVFRGGSASNNTTPARAVGEAYVPMQRKERRVAVGLVVPKQVRPAQSLPVTVSVPELAGKQAHVTISAVDAGILNITGF | not soluble
AHHHHHHGSIVPALIGSLPRPIGLAKKLEQYYIGRLDERKLEEAYREYTRRAFEKLRDAKIKVITDGLYRWDDIFNPFIRFIDGIEVNGLFKFYENNFFYRSPVVRGEIALKENPIPEWISIAQEIKEDVYPEATLKAVLPGPVTLAYHSINEYYKTLTDLAEAYAQVIGELIKELDVKIVELQEPSLAAEISEATKNIEDRVDKEVAKNIIEDLGRIKKLWVVTYFGTPQVLPEGVILNVDLIEGSVPEEYSGEIGLGIVDARTTKMERADRLRDKIRKYLAKFETIYVTPNTLLDFLPESVAWKKLRLLGRLGGE | not soluble
KEKIAILVDVQNVYYTCREAYRSNFDYNQFWYVATQEKEVVSAKAYAIASNDPKQRQFHHILRGVGFEVMLKPYIQRRDGSAKGDWDVGITLDAIEIAPDVDRVILVSGDGDFSLLVERIQQRYNKKVTVYGVPRLTSQTLIDCADNFVAIDDDFL | not soluble
MGSDKIHHHHHHMDIGHRMKELRIQYGLTQQELADRAELTKGFISQLERNQNSPSVGTLLDIIQCLGMTPAEFFTDSEPEQIVYKANDYFEKIDEEKNSKVEWIIPNAQTRSMEPVRLTLHPGGSSEIYLPQECEEFGYVIKGTVKLCYGGKVHTVKAGESFYFKAGKKHFIENKSSKDAMLIWVSNPPSF | not soluble
MGSDKIHHHHHHMQQNDKKLFVLDTNVLLHEPLAIYSFKEHDVIIPMTVLEELDSIKDRKRDVSRDARVAIRALEDILGGPTTPEQILKGVALPTREEHSQVSGHLSIFPDHQVEFIIGSLPGDNNDNRIINTALHLQKIHFPRTVVLVTKDINMRLKAKGAGIERVEDYRSDQLIDDVRFLAKGFYQFSGDFWQNVDKVSTERRGLHTVHQVPLEHLGNENFYLNQYLIDDSSDFCGRVVSKTDKHLEMIDRGRDRLLHHEAWGINPKNIYQGMALDALLDPDIELIILTGPAGCGKTLLAMAAALELVVERKLYDKIIVTRNTPEIAESIGFLPGSEEEKMTPWLAAITDTLEVLHKNDVNPAGSVNYIMEKANIQFKSINFMRGRSIQNSVVILDECQNLTASQIKTMITRMGEGTKLICSGNLAQIDSTYLTAVTSGLTYMVERFKDFEGSANIYLNGVVRSRLAEFAEEHL | not soluble
TGSIGSAARKILLAKTDVQLTLYSRRADRLKLIVDRETAVAGSVTDDDQLDQAIKGQDFVFVALNGDMDSFAAHIISAMERNGIQRLIFITTMGIYQEIPAWLGDSPEPYHNPILKSFRQAADRIEQSDLNYTIIRPGWYNN | not soluble
MQQPEQYCRFLCLVAHEFFHLWNIKRIRPQAFEVFDYDSENYTTSLWFVEGVTSYFDQLIPLWAGLFDAPTYLKLLSDSLNRYFHTPGRFVQSLSAASFDAWIKLYRPDENSINSQMSYYLKGELVALEHHHHHH | soluble
MGSDKIHHHHHHMYDLIGVGIGPMNLGLSALAHPTPLRTLFFDESEQFSWHPGMMIKDSMMQTSFISDLVTLADPTSPFTYLNYLRSLNRLHTFYFYEKLLISRQEYNAYLKWVSTQLDDLHFSTRVIDIQDTGDSYEVLVEEVATGKRTTYETRNVVLGTGSKPSIPGSFDKNVIHNTQYVMEKEAILQQDKVSIVGSGQSAAEIFLDLLTSDRPETFELEWISRSTIFETLETGKLGEEIFSPSYVRYFNSLPLATRQEAVAKFTRSQNGISPETLQAIYEHLYDLSPEEQQRVKIRANLEVDQISYDSDFTITMRHTELNEQRTSKTGAVVAATGFVPSLPRFINRLDIEFEGEQQAWKVDANYRISRTVSANHHLYATTNLELSHGPAADNLGMSVSRNQLILNDVAGKELYPVEQHATFTTFD | not soluble
IQRQMFPNIEVNYIDVRATYPGASPQEIEESILVKVEESIKDVTGIKKVVSRASRGSAYISIEVDVNADIKRVLDDVNQRIDTISNLPLGMEPINVYQVEWRQDVIEMGLVGDRPLEELKPIAKQIEDELLQLNNVMLVYLSAPEEEIAIEVDPLVLRKYDLTLNDVSNAIRRYSANFSAGEVKTNSGMIAVRIENQYYRGDEFRNIPVKLGANGAKVLLQDIATIKDGFTEEERYFEYSGQNAIYMSVEATRDQNIIPVAQSVRDYIEAKNKTLPSDVQLKILVDMTYYLNGRLDMMLK | not soluble
